Columns and labels:
Assay in all cases: ELISA on Sf9 extract, absorbance at 405 nm normalized to H16.D9
[1] = target: HPV16:D202E virus-like particles (human papillomavirus type 16) (UniProt P03101)
[2] = target: HPV16 L1 virus-like particles (human papillomavirus type 16) (UniProt P03101)
[3] = target: HPV16:D202H L1 (human papillomavirus type 16) (UniProt P03101)
[4] = target: HPV11 L1 virus-like particles (human papillomavirus type 11) (UniProt P04012)

Row | Substance | normalized ELISA value (normalized with H16.D9) [1] | normalized ELISA value (normalized with H16.D9) [2] | normalized ELISA value (normalized with H16.D9) [3] | normalized ELISA value (normalized with H16.D9) [4]
1 | MAb H16.U4 (antibody) | 0.59 | 0.79 | 0.21 | 0.06
2 | MAb H16.V5 (antibody) | 0.15 | 1.08 | 0.19 | 0.06

— patent US5952216
